This is an account of results in patent US20200299380A1 (published 2020).

What is called EC50 is the concentration that produces a half-maximal response. High values mean lower potency in that assay, low ones higher potency in that assay. One may read the Kd as the concentration at which binding is half-saturated. Low values mean tighter binding, high ones weaker binding.

The target of assay [1] is T1, MICA*007 expressed at the cell surface (human, UniProt Q29983 24-297).
T1 construct: also called C1R-MICA*007; C1R-MICA*07
T1 chain: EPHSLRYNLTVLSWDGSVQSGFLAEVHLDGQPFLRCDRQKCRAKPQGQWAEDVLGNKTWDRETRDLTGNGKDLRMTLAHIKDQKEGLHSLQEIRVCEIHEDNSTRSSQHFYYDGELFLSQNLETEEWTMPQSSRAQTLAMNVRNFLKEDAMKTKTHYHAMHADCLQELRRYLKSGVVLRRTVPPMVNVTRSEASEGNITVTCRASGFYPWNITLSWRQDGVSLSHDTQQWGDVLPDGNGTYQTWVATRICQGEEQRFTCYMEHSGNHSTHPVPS
In words: flow cytometry on C1R transfectant cells, 4-parameter logistic fit. Here is the method:
(§1) The binding of antibodies obtained from the first, second and third immunization series (including CHG1-M-MIA-19E9, CHG1-M-MIA-9C10, CHG1-M-MIA-6E4, CHG1-M-MIA-20C6, CHG1-M-MIA-16A8, CHG1-M-MIA-12A10, CHG1-M-MIA-10A7, CHG1-M-MIA-18E8, CHG1-M-MIA-10F3, CHG1-M-MIA-15F9 and CHG1-M-MIA-14B4) were tested for binding to MICA-expressing CR1 transfectant cells C1R-MICA*001, C1R-MICA*004, C1R-MICA*007 and C1R-MICA*008 (Pr. A. Steinle, Eberhard-Karls University Tuebingen, Germany) described in Salih et al. (2003) Blood 102(4): […]. Binding was analyzed by flow cytometry.
(§2) Cells were harvested and stained in PBS 1×/BSA 0.2%/EDTA 2 mM buffer during 30 minutes at 4° C. using a dose-range of the anti-MICA mAbs. After two washes in staining buffer, cells were stained for 30 min at 4° C. with mouse anti-human IgG1-PE monoclonal antibodies (1/11). After two washes, stainings were acquired on a BD FACS Canto II and analyzed using the FlowJo software.
(§3) Antibodies CHG1-M-MIA-19E9, CHG1-M-MIA-9C10, CHG1-M-MIA-6E4, CHG1-M-MIA-20C6, CHG1-M-MIA-12A10, CHG1-M-MIA-10A7, CHG1-M-MIA-18E8, CHG1-M-MIA-10F3, and CHG1-M-MIA-15F9 bound to each of the C1R-MICA*001, C1R-MICA*004, C1R-MICA*007 and C1R-MICA*008 cells (see FIG. 1A for antibodies CHG1-M-MIA-19E9, CHG1-M-MIA-9C10, CHG1-M-MIA-6E4, CHG1-M-MIA-20C6, CHG1-M-MIA-12A10, CHG1-M-MIA-10F3, and FIG. 1B for antibodies, CHG1-M-MIA-18E8, CHG1-M-MIA-15F9, CHG1-M-MIA-10A7). […] EC50 values are shown in Table C in μg/ml (calculated using a 4-parameter logistic fit).
On the technique in general: In flow cytometry, cells or beads pass a laser one at a time.

The target of assay [2] is T2, MICA*004 expressed at the cell surface (human, UniProt Q29983 24-297).
T2 construct: also called C1R-MICA*004; C1R-MICA*04
T2 chain: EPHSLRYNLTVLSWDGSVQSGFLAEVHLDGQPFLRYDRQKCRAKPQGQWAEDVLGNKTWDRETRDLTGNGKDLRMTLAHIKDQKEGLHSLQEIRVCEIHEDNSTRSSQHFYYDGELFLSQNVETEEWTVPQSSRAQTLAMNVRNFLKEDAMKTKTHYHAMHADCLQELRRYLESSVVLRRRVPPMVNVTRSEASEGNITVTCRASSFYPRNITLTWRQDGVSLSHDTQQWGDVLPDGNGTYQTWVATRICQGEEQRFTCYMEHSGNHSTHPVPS
Described as above. The method, then:
as §1, §2, §3

Assay [3] has as its target T3, MICA*008 expressed at the cell surface (human, UniProt Q29983 24-297).
T3 construct: also called C1R-MICA*008; C1R-MICA*08
T3 chain: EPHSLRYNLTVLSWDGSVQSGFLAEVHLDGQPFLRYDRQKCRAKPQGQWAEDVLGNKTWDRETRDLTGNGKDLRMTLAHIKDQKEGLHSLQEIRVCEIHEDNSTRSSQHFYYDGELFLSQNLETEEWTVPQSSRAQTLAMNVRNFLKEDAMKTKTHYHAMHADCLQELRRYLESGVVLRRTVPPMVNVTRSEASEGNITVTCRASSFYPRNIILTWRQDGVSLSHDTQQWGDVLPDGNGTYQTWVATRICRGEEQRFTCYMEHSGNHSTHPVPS
The assay is described as above. Here is the method: as §1, §2, §3

The target in assay [4] is T4, MICA*001 expressed at the cell surface (human, UniProt Q29983 24-297).
T4 construct: the protein on cells also has its transmembrane and cytoplasmic parts (Genbank AAB41060); also called C1R-MICA*001; C1R-MICA*01
T4 sequence: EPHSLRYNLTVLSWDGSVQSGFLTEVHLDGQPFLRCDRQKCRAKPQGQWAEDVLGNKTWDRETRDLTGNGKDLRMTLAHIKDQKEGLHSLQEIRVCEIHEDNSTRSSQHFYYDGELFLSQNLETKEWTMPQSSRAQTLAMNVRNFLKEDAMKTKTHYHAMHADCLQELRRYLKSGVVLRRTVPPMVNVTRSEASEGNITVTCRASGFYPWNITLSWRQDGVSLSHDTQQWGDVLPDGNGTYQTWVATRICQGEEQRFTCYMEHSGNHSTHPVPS
The description is as above. Here is the method:
as §1, §2, §3

In assay [5] the target is T5, MICB-Fc (R&D Systems 1599-MB) (human, UniProt Q29980 23-298, limits assumed).
T5 construct: Bought; also called human MICB-Fc; not shown: Fc of the bought fusion protein
T5 sequence: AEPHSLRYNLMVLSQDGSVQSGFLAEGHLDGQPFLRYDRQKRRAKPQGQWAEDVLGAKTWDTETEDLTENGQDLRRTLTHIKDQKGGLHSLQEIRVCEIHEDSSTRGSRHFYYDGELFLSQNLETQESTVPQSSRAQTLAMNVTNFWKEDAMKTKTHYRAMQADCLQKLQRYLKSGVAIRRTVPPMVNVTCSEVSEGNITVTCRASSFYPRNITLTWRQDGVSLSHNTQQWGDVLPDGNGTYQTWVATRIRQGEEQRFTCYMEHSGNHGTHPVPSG
In words: SPR, antibody at 10 µg/ml injected over immobilized MICB-Fc. Here is the method:
(§4) For cross-binding study, the human ULBP-1-Fc (R&D systems*), MICB-Fc (*), ULBP-2-Fc (*) and ULBP-3-Fc (*) recombinant proteins were covalently immobilized respectively on the flow cell one to four of a CM5 sensorchip. Anti-MICA antibodies (at a constant concentration of 10 μg/ml) were injected for 2 minutes at a flow rate of 10 μl/min onto the four flow cells in parallel. After each cycle, Sensorchip was regenerated by a five second injection of appropriate regeneration buffer.
On the technique in general: SPR reads the build-up and loss of mass on a sensor chip optically.

The next assay deals with T6, MICA*001-BirA (human, UniProt Q29983 24-297).
T6 construct: also called MICA-BirA; MICA*01-BirA; not shown: BirA tag
T6 sequence: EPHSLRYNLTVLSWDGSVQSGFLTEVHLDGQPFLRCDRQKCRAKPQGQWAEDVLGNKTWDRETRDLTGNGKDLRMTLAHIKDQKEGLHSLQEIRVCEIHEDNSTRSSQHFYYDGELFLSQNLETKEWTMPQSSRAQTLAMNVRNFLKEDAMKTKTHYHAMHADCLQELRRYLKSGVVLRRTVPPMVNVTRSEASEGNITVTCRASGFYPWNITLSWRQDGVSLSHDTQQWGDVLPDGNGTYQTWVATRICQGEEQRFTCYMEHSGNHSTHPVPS
In words: SPR single cycle kinetics, monovalent mean KD at pH 7.4, antibody captured on Protein-G chip, MICA-BirA injected. Here is the method:
For monovalent affinity measurement, chimeric anti-MICA antibodies were captured onto a Protein-G chip.
Affinities were determined using single cycle kinetics (SCK). SCK cycles were as follows: Successive 120s injections at 30 μl/min of 5 serial dilutions (0.01 to 100 nM) of MICA-His or MICA-BirA in ascending order (or of buffer for the blank injections to be subtracted during the analysis). After the last concentration is injected, complex is left to dissociate for 600s before regeneration by a 10s injection of appropriate regeneration buffer at 40 μl/min. After the regeneration, chip is left to stabilise for 60s in running buffer. Curves are fitted using Biacore T100 Evaluation software.

Assay [6] deals with T7, human ULBP-3-Fc (R&D systems) (human, UniProt Q9BZM4 30-217, limits assumed).
T7 construct: Bought; not shown: Fc of the bought fusion protein
T7 sequence (looked up): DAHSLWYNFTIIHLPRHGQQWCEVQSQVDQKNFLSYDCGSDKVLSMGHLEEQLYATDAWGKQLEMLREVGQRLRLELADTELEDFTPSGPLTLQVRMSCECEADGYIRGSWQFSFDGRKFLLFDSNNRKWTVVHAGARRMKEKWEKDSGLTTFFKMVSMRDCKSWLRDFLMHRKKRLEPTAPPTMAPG
Put plainly: SPR, antibody injected over immobilized ULBP-3-Fc. Here is the method: as §4

Assay [7] has as its target T8, human ULBP-1-Fc (R&D systems) (human, UniProt Q9BZM6 26-216, limits assumed).
T8 construct: Bought; not shown: Fc of the bought fusion protein
T8 sequence (looked up): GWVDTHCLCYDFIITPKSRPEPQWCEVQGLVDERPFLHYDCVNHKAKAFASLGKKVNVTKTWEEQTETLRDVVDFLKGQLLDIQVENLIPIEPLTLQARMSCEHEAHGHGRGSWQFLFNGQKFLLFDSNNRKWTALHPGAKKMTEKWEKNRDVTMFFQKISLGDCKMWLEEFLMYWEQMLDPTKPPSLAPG
In words: SPR, antibody injected over immobilized ULBP-1-Fc. The method, then:
as §4

Assay [8] addresses T9, human ULBP-2-Fc (R&D systems) (human, UniProt Q9BZM5 26-217, limits assumed).
T9 construct: Bought; not shown: Fc of the bought fusion protein
T9 sequence (looked up): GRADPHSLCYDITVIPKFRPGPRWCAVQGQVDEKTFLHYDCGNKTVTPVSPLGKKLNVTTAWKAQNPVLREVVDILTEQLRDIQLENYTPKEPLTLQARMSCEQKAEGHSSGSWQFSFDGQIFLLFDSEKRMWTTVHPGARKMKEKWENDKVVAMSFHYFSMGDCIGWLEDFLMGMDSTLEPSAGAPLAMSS
In words: SPR, antibody injected over immobilized ULBP-2-Fc. Here is the method: as §4

B1: CHG1-M-MIA-15F9 (antibody, human IgG1, V domains shown)
VH: DVQLQESGPDLVKPSQSLSLTCTVTGYSITSGYSWHWIRQFPGNKLEWMGFIHYSGSTDYNPSLKSRISLTRDTSKNQFFLQLNSVSTEDTATYYCAKDYGHWYFDVWGAGTTVTVSS
VL: SIVMTQTPKFLLVSAGDRVTITCKASQSVSYDVAWYQQKPGQSPKLLIFYASNRYTGVPARFTGSGYGTDFTFTISTVQAEDLAVYFCQQDYSSLTFGAGTKLELK
notes: the VH entry ends with ASTK
In the case of B1, the EC50 in assay [1] came out at 1.81 µg/mL; in [2] it was 0.43 µg/mL; in [3], 0.79 µg/mL; in assay [4], 0.68 µg/mL. Moreover, in assay [5], the binding result is on record as “binds”. Further, the Kd with MICA*001-BirA came out at 61 nM.

B2: CHG1-M-MIA-10F3 (antibody, human IgG1, V domains shown)
VH: QVQLQQSAAELARPGASVKMSCKASGYTFTSYTMHWVKQRPGQGLEWIGYINPSSGYTEYNQKFKDKTTLTVDKSSTTSYMQLSSLTSDNSAVYYCARGGDWDVDWFVYWGQGTLVTVSA
VL: QIVLTQSPAIMSASPGEKVTITCSASSSISYMHWFQQKPGTSPKLWIYSTSKLASGVPARFSGSGSGTSHSLTISRMEAEDAATYYCQHRSTYPFTFGSGTKLEIK
notes: the VH entry ends with ASTK
Take B2: the EC50 in assay [1] is 0.94 µg/mL; in assay [2], 0.17 µg/mL; in [3] it was 0.26 µg/mL; in [4], 0.47 µg/mL. The binding result in assay [5] was “binds”. Further, in the assay with MICA*001-BirA, the affinity, expressed as Kd, was 8.3 nM.

B3: CHG1-M-MIA-18E8 (antibody, human IgG1, V domains shown)
VH: DVQLQESGPDLVNPSQSLSLICTVTGYSITSDYSWHWIRQFPGNKLEWMGNIHYSGRINYNPSLRSRISITRDTSKNQFFLQLISVTTEDTATYYCATRRTFGNFEDYWGQGTTLTVSS
VL: QIVLSQSPATLSVSPGEKVTMTCRSSSSVNYMHWYQQKPGSSPKPWIYATSTLASGVPARFSGSGSGTSYSLTISRVEAEDAATYYCQQWSSNPLTFGAGTKLELK
notes: the VH entry ends with ASTK
Regarding B3, the EC50 worked out at 0.3 µg/mL in assay [1], 0.15 µg/mL in assay [2], 0.24 µg/mL in assay [3] and 0.5 µg/mL in assay [4]. For the same molecule, in assay [5], the binding result was “binds”. This molecule also displayed a Kd with MICA*001-BirA of 54 nM.

B4: CHG1-M-MIA-19E9 (antibody, human IgG1, V domains shown)
VH: DVQLQESGPGLVKPSQSLSLTCTVTGYSITSDYAWNWIRQFPGNKLEWMGFVSYSGTTKYNPSLKSRISITRDTSENQFFLQLNSVTSEDTATYYCARGYGFDYWGQGTTLTVSS
VL: EIVLTQSPTTMAASPGEKITITCSATSSISSIYFHWYQQRPGFSPKLLIYRTSNLASGVPARFSGSGSGTSYSLTIGTMEAEDVATYYCQQGTTIPFTFGSGTKLEIK
notes: also called chimeric anti-MICA 19E9
As for B4, the binding result in assay [6], in assay [7] and in assay [8] was “no binding (tested: 10 µg/ml)” throughout.
